Experimental findings from article PMC9061753, “Mre11-Rad50 oligomerization promotes DNA double-strand break repair” (Nature Communications, 2022) are described below.

Series [1] deals with T1, Mre11-Rad50 (MRwt) (S. cerevisiae, UniProt P32829;P12753 1-692;1-1312). Nature of the series: EMSA; ATPgS, 5 mM Mg2+, 30 mM NaCl; mean of the 2 visible of 3 replicates (6.248, 7.406); apparent; Oligo EMSA: 25 mM Tris acetate pH 7.5, 1 mM DTT, 0.25 mg/ml BSA, 5 mM Mg acetate, 1 mM ATPgS, 30 mM NaCl, 30 C 15 min, 100 nM bp DNA; plasmid EMSA: 80 mM KCl, plus 1 mM MnCl2, 30 C 1 h; mass photometry 25 mM KCl. The note with it: protein: recombinant; tags: Mre11-6xHis; Rad50 untagged; chain copies: 2;2; label: 3'-32P on BIO100C; blunt before 3' labeling. In general terms: A gel shift assay detects complexes by their altered migration in electrophoresis.

In series [2] the target is T1, Mre11-Rad50 (MRwt). Nature of the series: EMSA; ATPgS, 5 mM Mg2+, 30 mM NaCl; mean of the 2 visible of 3 replicates (4.948, 4.099); apparent; Oligo EMSA: 25 mM Tris acetate pH 7.5, 1 mM DTT, 0.25 mg/ml BSA, 5 mM Mg acetate, 1 mM ATPgS, 30 mM NaCl, 30 C 15 min, 100 nM bp DNA; plasmid EMSA: 80 mM KCl, plus 1 mM MnCl2, 30 C 1 h; mass photometry 25 mM KCl. The note with it: protein: recombinant; tags: Mre11-6xHis; Rad50 untagged; chain copies: 2;2; label: 3'-32P on top strand; 1-nt 5' overhangs as printed.

T1 sequence (P32829 whole entry, chain 1 of 2): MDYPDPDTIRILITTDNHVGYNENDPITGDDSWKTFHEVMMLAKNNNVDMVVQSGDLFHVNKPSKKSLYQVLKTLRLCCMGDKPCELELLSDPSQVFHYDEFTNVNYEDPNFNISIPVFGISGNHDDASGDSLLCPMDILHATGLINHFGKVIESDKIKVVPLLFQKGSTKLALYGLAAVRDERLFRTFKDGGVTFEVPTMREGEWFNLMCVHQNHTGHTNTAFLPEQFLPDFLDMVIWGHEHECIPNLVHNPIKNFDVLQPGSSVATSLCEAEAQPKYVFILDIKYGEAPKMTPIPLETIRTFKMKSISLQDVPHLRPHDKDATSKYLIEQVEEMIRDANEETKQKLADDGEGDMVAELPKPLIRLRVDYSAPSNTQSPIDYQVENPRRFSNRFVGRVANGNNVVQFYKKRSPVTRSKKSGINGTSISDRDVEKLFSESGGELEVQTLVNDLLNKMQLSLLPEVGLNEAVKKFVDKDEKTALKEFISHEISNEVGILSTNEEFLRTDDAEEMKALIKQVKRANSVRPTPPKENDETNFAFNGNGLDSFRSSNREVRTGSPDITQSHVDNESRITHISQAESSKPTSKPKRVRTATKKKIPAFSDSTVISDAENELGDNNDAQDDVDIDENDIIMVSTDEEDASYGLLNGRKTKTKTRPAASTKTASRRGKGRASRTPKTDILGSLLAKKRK
T1 sequence (P12753 whole entry, chain 2 of 2): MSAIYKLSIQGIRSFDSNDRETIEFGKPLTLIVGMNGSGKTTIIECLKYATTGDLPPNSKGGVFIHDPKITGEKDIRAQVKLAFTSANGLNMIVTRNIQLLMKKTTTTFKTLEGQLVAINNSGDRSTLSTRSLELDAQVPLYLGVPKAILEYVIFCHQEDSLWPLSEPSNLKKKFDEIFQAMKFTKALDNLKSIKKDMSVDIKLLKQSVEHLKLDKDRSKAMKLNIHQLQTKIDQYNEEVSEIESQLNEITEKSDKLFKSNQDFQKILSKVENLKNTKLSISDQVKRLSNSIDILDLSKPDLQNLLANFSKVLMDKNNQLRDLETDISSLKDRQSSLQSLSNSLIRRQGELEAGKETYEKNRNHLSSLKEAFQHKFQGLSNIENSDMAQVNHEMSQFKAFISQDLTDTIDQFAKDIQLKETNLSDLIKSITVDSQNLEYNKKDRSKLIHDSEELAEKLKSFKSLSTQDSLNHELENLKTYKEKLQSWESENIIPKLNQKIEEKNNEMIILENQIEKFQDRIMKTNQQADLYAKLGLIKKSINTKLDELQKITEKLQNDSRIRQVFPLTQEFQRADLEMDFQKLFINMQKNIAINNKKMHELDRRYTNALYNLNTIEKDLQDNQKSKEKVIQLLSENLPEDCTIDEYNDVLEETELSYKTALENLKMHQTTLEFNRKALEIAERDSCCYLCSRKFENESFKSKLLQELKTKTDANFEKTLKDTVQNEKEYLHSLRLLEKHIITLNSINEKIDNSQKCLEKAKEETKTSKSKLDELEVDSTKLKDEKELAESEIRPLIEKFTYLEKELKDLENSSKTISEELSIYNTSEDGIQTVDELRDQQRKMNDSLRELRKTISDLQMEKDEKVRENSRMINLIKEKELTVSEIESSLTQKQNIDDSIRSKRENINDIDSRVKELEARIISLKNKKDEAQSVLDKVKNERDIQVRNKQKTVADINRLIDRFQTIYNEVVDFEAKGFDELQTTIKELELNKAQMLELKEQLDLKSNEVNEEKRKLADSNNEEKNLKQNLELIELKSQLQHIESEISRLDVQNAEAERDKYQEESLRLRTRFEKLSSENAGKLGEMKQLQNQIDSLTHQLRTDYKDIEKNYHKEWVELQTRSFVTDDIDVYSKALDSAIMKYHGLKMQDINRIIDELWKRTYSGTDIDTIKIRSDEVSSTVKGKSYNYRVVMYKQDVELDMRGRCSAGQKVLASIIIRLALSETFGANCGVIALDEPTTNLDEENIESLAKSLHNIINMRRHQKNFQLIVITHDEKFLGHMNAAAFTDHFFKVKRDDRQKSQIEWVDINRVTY

B1: 100 bp EMSA (BIO100C/BIO100) (dsDNA)
DNA 1: GATGCAGGAGGCTGCTACGACCATGGCAGAAGATTATGAGGTGGAGTACGCGCCCGGGGAGCCCAAGGGCACGCCCTGGCACCCGCACCGCGGCACTTAC
DNA 2: GTAAGTGCCGCGGTGCGGGTGCCAGGGCGTGCCCTTGGGCTCCCCGGGCGCGTACTCCACCTCATAATCTTCTGCCATGGTCGTAGCAGCCTCCTGCATC
modifications: biotin position marked in table
B1: the Kd with Mre11-Rad50 (MRwt) [1] was roughly 6.83 nM.

B2: 197 bp EMSA (197mer) (dsDNA)
DNA 1: GCTTCGTATGTTTCTCCTGCTTATCACCTTCTTGAAGGCTTCCCATTCATTCAGGAACCGCCTTCTGGTGATTTGCAAGAACGCGTACTTATTCGCCACCATGATTATGACCAGTGTTTCCAGTCCGTTCAGTTGTTGCAGTGGAATAGTCAGGTTAAATTTAATGTGACCGTTTATCGCAATCTGCCGACCACTCG
DNA 2: GCGAGTGGTCGGCAGATTGCGATAAACGGTCACATTAAATTTAACCTGACTATTCCACTGCAACAACTGAACGGACTGGAAACACTGGTCATAATCATGGTGGCGAATAAGTACGCGTTCTTGCAAATCACCAGAAGGCGGTTCCTGAATGAATGGGAAGCCTTCAAGAAGGTGATAAGCAGGAGAAACATACGAAG
Turning to B2, the Kd in the series with Mre11-Rad50 (MRwt) [2] is roughly 4.52 nM.
